Patent publication US20140112915A1 (Novartis, published 2014)
Like-named read-outs stand apart in the source and are kept apart here.

What was measured:
[1] = target: T1, Recombinant human IL-18 (human, UniProt Q14116 37-193); experiment: cell-based or functional assay
T1 sequence: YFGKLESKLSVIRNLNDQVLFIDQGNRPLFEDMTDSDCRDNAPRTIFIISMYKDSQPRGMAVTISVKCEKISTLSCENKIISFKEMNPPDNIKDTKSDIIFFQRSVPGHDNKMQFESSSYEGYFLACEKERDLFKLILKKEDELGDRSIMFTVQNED

[2] = target: T2, Recombinant cynomolgus IL-18 (cynomolgus monkey, UniProt Q14116 37-193 (human entry)); experiment: cell-based or functional assay
T2 chain: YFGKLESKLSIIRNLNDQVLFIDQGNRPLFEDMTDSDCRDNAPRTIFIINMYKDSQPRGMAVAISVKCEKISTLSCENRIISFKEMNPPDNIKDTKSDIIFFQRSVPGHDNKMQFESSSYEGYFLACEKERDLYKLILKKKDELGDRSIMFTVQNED

[3] = target: T3, Native human IL-18 (human, UniProt Q14116 37-193); experiment: cell-based or functional assay
T3 sequence: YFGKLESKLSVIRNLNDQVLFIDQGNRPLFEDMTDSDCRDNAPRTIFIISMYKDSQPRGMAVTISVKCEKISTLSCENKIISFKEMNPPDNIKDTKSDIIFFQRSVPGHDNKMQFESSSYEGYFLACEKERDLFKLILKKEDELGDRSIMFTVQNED

[4] = target: T1, Recombinant human IL-18; experiment: cell-based or functional assay; remark: listed apart in the source
[5] = target: T3, Native human IL-18; experiment: cell-based or functional assay; remark: listed apart in the source
[6] = target: T2, Recombinant cynomolgus IL-18; experiment: cell-based or functional assay
[7] = target: T4, IL-18/IL-18BP complex (human, UniProt O95998 31-194, biotinylated in the first ELISA setup, unbiotinylated in the second); experiment: ELISA, second set-up: unbiotinylated human IL-18/rhIL-18BP-Fc complex captured on Maxisorp plate through the Fc tag by goat anti-human IgG Fc, antibody titrated, AttoPhos fluorescence [B]
T4 construct: also called biotinylated IL-18/IL18-BP complex; not shown: human IgG1 Fc tag
T4 sequence 1: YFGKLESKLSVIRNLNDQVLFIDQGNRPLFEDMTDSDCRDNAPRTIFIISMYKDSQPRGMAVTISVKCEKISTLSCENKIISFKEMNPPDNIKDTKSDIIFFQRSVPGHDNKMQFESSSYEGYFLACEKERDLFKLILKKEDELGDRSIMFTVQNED
T4 sequence 2: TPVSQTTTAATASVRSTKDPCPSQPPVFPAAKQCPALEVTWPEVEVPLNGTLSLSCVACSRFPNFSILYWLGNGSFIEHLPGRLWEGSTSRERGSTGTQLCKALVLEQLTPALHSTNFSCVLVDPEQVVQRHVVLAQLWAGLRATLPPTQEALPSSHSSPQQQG

[8] = target: T1, Recombinant human IL-18; experiment: solution equilibrium titration (SET), ECL detection
[9] = target: T2, Recombinant cynomolgus IL-18; experiment: solution equilibrium titration (SET), ECL detection; value in brackets = cynomolgus IL-18; bracketed value
[10] = target: T1, Recombinant human IL-18; experiment: solution equilibrium titration (SET), ECL detection; human IL-18; unbracketed value, column Hu IL-18
[11] = target: T1, Recombinant human IL-18; experiment: cell-based or functional assay; remark: listed apart in the source
[12] = target: T3, Native human IL-18; experiment: cell-based or functional assay; remark: listed apart in the source
[13] = target: T4, IL-18/IL-18BP complex; experiment: ELISA, first set-up: antibody titrated and incubated with the biotinylated human IL-18/rhIL-18BP-Fc complex, captured on NeutrAvidin plate, AP-labelled anti-human F(ab)2, AttoPhos fluorescence [A]

B1: MOR09465 (antibody, human IgG1, lambda, L234A L235A, V domains shown)
VH: EVQLVQSGAEVKKPGSSVKVSCKASGGTFNSYAISWVRQAPGQGLEWMGNIIPHYGFAYYAQKFQGRVTITADESTSTAYMELSSLRSEDTAVYYCARAAYHPLVFDNWGQGTLVTVSS
VL: DIVLTQPPSVSGAPGQRVTISCSGSSSNIGNHYVNWYQQLPGTAPKLLIYRNNHRPSGVPDRFSGSKSGTSASLAITGLQSEDEADYYCQSWDYSGFSTVFGGGTKLTVLG
notes: also called MOR9465
B1 was tested, and the “IC50, inhibition of IFN-γ release, KG-1 cells, Hu IL-18 (1 nM)” value (“IC50, inhibition of IFN-γ release … (1 nM)” for short) [1] was 0.3 nM, the “IC50, inhibition of IFN-γ release, PBMC, Hu IL-18 (recombinant)” value (from here on “IC50, inhibition … (recombinant)”) [1] was 0.6 nM and the “IC50, inhibition of IFN-γ release, KG-1 cells, Cyno IL-18” value [2] was 1.8 nM. The “IC50, inhibition of IFN-γ release, PBMC, Native IL-18 (LPS/IL-12)” value (shortened to “IC50, inhibition … (LPS/IL-12)”) [3] was 0.89 nM, the “IC50, inhibition of IFN-γ release, human whole blood, recombinant human IL-18 (7 nM)” value (from here on “IC50, inhibition of IFN-γ release … (7 nM)”) [4] was 4.2 nM and the “IC50, inhibition of IFN-γ release, human whole blood, LPS/IL-12 (native IL-18)” value (from here on “IC50, inhibition … (native IL-18)”) [5] was 19.4 nM. The “IC50, inhibition of IFN-γ production, cynomolgus whole blood, recombinant cynomolgus IL-18 (7 nM)” value (from here on “IC50, inhibition of IFN-γ production”) [6] was 55 nM, the binding result [7] was “no binding (tested: about 400 nM)” and the Kd [8] was 0.006 nM.

B2: MOR09441 (antibody, human IgG1, lambda, L234A L235A, V domains shown)
VH: EVQLVQSGAEVKKPGSSVKVSCKASGGTFNSYAISWVRQAPGQGLEWMGWINPFYIGETFYAQKFQGRVTITADESTSTAYMELSSLRSEDTAVYYCARAAYHPLVFDNWGQGTLVTVSS
VL: DIVLTQPPSVSGAPGQRVTISCSGSSSNIGNHYVNWYQQLPGTAPKLLIYRNNHRPSGVPDRFSGSKSGTSASLAITGLQSEDEADYYCQSWDYSGFSTVFGGGTKLTVLG
notes: also called MOR9441
For B2, the “IC50, inhibition of IFN-γ release … (1 nM)” value [1] was 0.6 nM, the “IC50, inhibition … (recombinant)” value [1] was 2.5 nM and the “IC50, inhibition of IFN-γ release, KG-1 cells, Cyno IL-18” value [2] was 16.4 nM. For the same binder, the “IC50, inhibition … (LPS/IL-12)” value [3] was 0.45 nM, the “IC50, inhibition of IFN-γ release … (7 nM)” value [4] was 8 nM and the “IC50, inhibition … (native IL-18)” value [5] was 16.3 nM. For the same binder, the “IC50, inhibition of IFN-γ production” value [6] was 110 nM, the binding result [7] was “no binding (tested: about 400 nM)” and the Kd [8] was 0.001 nM.

B3: MOR09464 (antibody, human IgG1, lambda, L234A L235A, V domains shown)
VH: EVQLVQSGAEVKKPGSSVKVSCKASGGTFNSYAISWVRQAPGQGLEWMGNIIPMTGQTYYAQKFQGRVTITADESTSTAYMELSSLRSEDTAVYYCARAAYHPLVFDNWGQGTLVTVSS
VL: DIVLTQPPSVSGAPGQRVTISCSGSSSNIGNHYVNWYQQLPGTAPKLLIYRNNHRPSGVPDRFSGSKSGTSASLAITGLQSEDEADYYCQSWDYSGFSTVFGGGTKLTVLG
notes: also called MOR9464
B3 was tested, and the “IC50, inhibition of IFN-γ release … (1 nM)” value [1] was 0.8 nM, the “IC50, inhibition … (recombinant)” value [1] was 1.3 nM and the “IC50, inhibition of IFN-γ release, KG-1 cells, Cyno IL-18” value [2] was 8.3 nM. The “IC50, inhibition … (LPS/IL-12)” value [3] was 0.2 nM, the “IC50, inhibition of IFN-γ release … (7 nM)” value [4] was 3.6 nM and the “IC50, inhibition … (native IL-18)” value [5] was 9.8 nM. The “IC50, inhibition of IFN-γ production” value [6] was 51 nM, the binding result [7] was “no binding (tested: about 400 nM)” and the Kd [8] was 0.003 nM.

B4: MOR09466 (antibody, human IgG1, lambda, L234A L235A, V domains shown)
VH: EVQLVQSGAEVKKPGSSVKVSCKASGGTFNSYAISWVRQAPGQGLEWMGNIIPYSGFAYYAQKFQGRVTITADESTSTAYMELSSLRSEDTAVYYCARAAYHPLVFDNWGQGTLVTVSS
VL: DIVLTQPPSVSGAPGQRVTISCSGSSSNIGNHYVNWYQQLPGTAPKLLIYRNNHRPSGVPDRFSGSKSGTSASLAITGLQSEDEADYYCQSWDYSGFSTVFGGGTKLTVLG
notes: also called MOR9466
B4 was tested, and the “IC50, inhibition of IFN-γ release … (1 nM)” value [1] was 0.4 nM, the “IC50, inhibition … (recombinant)” value [1] was 1.2 nM and the “IC50, inhibition of IFN-γ release, KG-1 cells, Cyno IL-18” value [2] was 5.6 nM. The “IC50, inhibition … (LPS/IL-12)” value [3] was 2.1 nM, the “IC50, inhibition of IFN-γ release … (7 nM)” value [4] was 5.6 nM and the “IC50, inhibition … (native IL-18)” value [5] was 18.5 nM. The “IC50, inhibition of IFN-γ production” value [6] was 179 nM, the binding result [7] was “no binding (tested: about 400 nM)” and the Kd [8] was 0.005 nM.

B5: MOR10222_E1Q_N30S_M54I (antibody, human IgG1, lambda, L234A L235A, V domains shown)
VH: QVQLVQSGAEVKKPGSSVKVSCKASGGTFSSYAISWVRQAPGQGLEWMGNIIPITGQTYYAQKFQGRVTITADESTSTAYMELSSLRSEDTAVYYCARAAYHPLVFDNWGQGTLVTVSS
VL: QSVLTQPPSASGTPGQRVTISCSGSSSNIGNHYVNWYQQLPGTAPKLLIYRNNHRPSGVPDRFSGSKSGTSASLAISGLQSEDEADYYCQSWDYSGFSTVFGGGTKLTVLG
With B5 the Kd [9] was 0.03 nM, the “IC50, inhibition of IFN-γ release … (1 nM)” value [1] was 4.21 nM and the “IC50, inhibition of IFN-γ release, KG-1 cells, Cyno IL-18” value [2] was 8.12 nM. For the same binder, the “IC50, inhibition … (LPS/IL-12)” value [3] was 0.05 nM, the “IC50, inhibition of IFN-γ release … (7 nM)” value [4] was 47.3 nM and the “IC50, inhibition … (native IL-18)” value [5] was 9.3 nM. The Kd [10] was 0.003 nM, the “IC50, inhibition of IFN-γ release … (1 nM)” value [11] was 4.2 nM and the “IC50, inhibition … (LPS/IL-12)” value [12] was 0.05 nM.

B6: MOR08775 (antibody, human IgG1, lambda, V domains shown)
VH: QVQLVQSGAEVKKPGSSVKVSCKASGGTFNSYAISWVRQAPGQGLEWMGGIIPIYGTANYAQKFQGRVTITADESTSTAYMELSSLRSEDTAVYYCARAAYHPLVFDNWGQGTLVTVSS
VL: DIVLTQPPSVSGAPGQRVTISCSGSSSNIGNHYVNWYQQLPGTAPKLLIYRNNHRPSGVPDRFSGSKSGTSASLAITGLQSEDEADYYCQSWDYSGFSTVFGGGTKLTVLG
notes: also called MOR8775
B6 was tested, and the “IC50, inhibition of IFN-γ release … (1 nM)” value [1] was 68 nM, the “IC50, inhibition … (recombinant)” value [1] was 9.2 nM and the “IC50, inhibition of IFN-γ release, KG-1 cells, Cyno IL-18” value [2] was 22 nM. The “IC50, inhibition … (LPS/IL-12)” value [3] was 0.7 nM, the binding result [13] was “no binding (tested: about 800 nM)” and the Kd [8] was 0.065 nM.

B7: MOR08776 (antibody, human IgG1, lambda, V domains shown)
VH: QVQLQESGPGLVKPGETLSLTCTVSGGSISTGSYYWNWIRQAPGKGLEWIGEINHMGITYYNPSLKGRVTISVDTSKNQFSLKLSSVTAEDTAVYYCARTTRYWMSHILAYGMDYWGQGTLVTVSS
VL: DIVLTQPPSVSGAPGQRVTISCSGSSSNIGNHYVSWYQQLPGTAPKLLIYANTKRPSGVPDRFSGSKSGTSASLAITGLQSEDEADYYCSSYDGSQSIVFGGGTKLTVLG
notes: also called MOR8776
With B7 the “IC50, inhibition of IFN-γ release … (1 nM)” value [1] was 18 nM, the “IC50, inhibition … (recombinant)” value [1] was 50.8 nM and the “IC50, inhibition … (LPS/IL-12)” value [3] was 5.9 nM. The binding result [13] was “no binding (tested: about 800 nM)” and the Kd [8] was 0.038 nM.

B8: MOR13341 (antibody, human IgG1, kappa, L234A L235A, V domains shown)
VH: QVQLVQSGAEVKKPGSSVKVSCKASGGTFSTFSISWVRQAPGQGLEWMGGIIPIFGTANYAQKFQGRVTITADESTSTAYMELSSLRSEDTAVYYCARGGYGGYYYFDYWGQGTLVTVSS
VL: DIQMTQSPSSLSASVGDRVTITCRASQSISNRLNWYQQKPGKAPKLLIYKGSTLQSGVPSRFSGSGSGTDFTLTISSLQPEDFATYYCQQHKVWLTTFGQGTKVEIKR
With B8 the Kd [9] was 0.03 nM, the “IC50, inhibition of IFN-γ release, KG-1 cells, Hu IL-18 (0.5 nM)” value [1] was 0.13 nM and the “IC50, inhibition of IFN-γ release, KG-1 cells, Cyno IL-18 (0.2 nM)” value [2] was 2.8 nM. The “IC50, inhibition … (LPS/IL-12)” value [3] was 0.8 nM, the “IC50, inhibition of IFN-γ release … (7 nM)” value [4] was 5.6 nM and the “IC50, inhibition … (native IL-18)” value [5] was 19.6 nM. The Kd [10] was 0.003 nM.
